# Measured values taken from patent publication US20210253725A1 (BIONTECH, published 2021).
# B1: P018.S.02.A.H03 (antibody, V domains shown)
# VH: QSLEESGGRLVTPGGSLTLTCTVSGIDLSSYGMGWVRQAPGKGLEWIGTISYGGSTFYANWVKGRFTISKTSTTVDLKVTSLTTEDAATYFCAREVPYWSLWGQGTLVTVSS
# VL: AYDMTQTPASVAAAVGGTVTIKCQASQSIGSDLSWYQQKRGQPPKLLIYDASTLASGVPSRFKGSGSGTEFTLTISDVQSADAATVYCQQDYSYRNVDNTFGGGTEVVVK
# notes: V regions on human Ig constant parts; also called AB134_3
# B2: P018.S.11.A.D03 (antibody, V domains shown)
# VH: QEQLKETGGGLVQPGGSLTLSCKASGFDFSSGYMSWVRQAPGKGLEWIGYIDPVFGSTYYASWVNGRFAISSHNAQNTLYLQLNSLTAADTATYFCARDLRAFYSGWGGINLWGPGTLVTVSS
# VL: AAVLTQTPSPVSAAVGGTVTIKCQSSQIVVNNNFLSWYQQKPGQPPKLLIYDASNLASGVPDRFSGSGSGTQFTLTISGVQSDDAATYYCLGGYDDDAENAFGGGTEVVVQ
# notes: V regions on human Ig constant parts; also called AB134_30
# B3: P018.S.11.A.G03 (antibody, V domains shown)
# VH: QSLEESGGRLVTPGTPLTLTCTASGFSLTNYAMNWVRQAPGKGLEWIGFINYDGNTYYANWAKGRFTISRTSTTVDLKITSPTTEDTATYFCARGGDGYTHIPDTFDPWGPGTLVTVSS
# VL: AFEMTQTPSSVSVAVGGTVTIKCQASQSIYSYLSWYQQKPGQPPKLLIYYASTLASGVPSRFVGSGSGTQFTLTISGVESADAATYYCQQGYSYSNIDNVFGGGTEMVVK
# notes: V regions on human Ig constant parts; also called AB134_43
# B4: P018.S.05.A.F05 (as anti-CD134 antibody) (antibody, V domains shown)
# VH: QSVEESGGRLVTPGTPLTLTCTVSGFSLSNYYMTWVRQAPGKGLEYIGIIGSGVSTYYANWAKGRFTISKASSTTVDLKMTSPTTEDTATYFCARDMYVGNWGDWGLWGQGTLVTVSS
# VL: AYDMTQTPASVEVAVGGTVTIKCQASQSISNNLNWYQQKPGQPPKLLIYSVSTLASGVPSRFKGSGSGTDYTLTISGVESVDAATYYCQQDYRIGDLDSAFGGGTEVVVK
# notes: V regions on human Ig constant parts; also called AB134_16
# B5: P018.S.12.A.C01 (antibody, V domains shown)
# VH: QEQLKESGGGLVTPGGTLTLTCTASGFTFSSHAMGWVRQAPGKGLEWIGKIYDDGTTFYANWAKGRFTISRTSTTVDLKMTSLTTEDTATYFCLRGYNSGFNFWGQGTLVTVSS
# VL: AQVLTQTPASVSAAVGGTVTISCQSSESVYNNNFLAWYQQKPGQPPKLLIYLASTLASGVPSRFSGSGSGTEFTLTISDLDSDDAATYYCAGGYDDNVYGFGGGTEVVVK
# notes: V regions on human Ig constant parts; also called AB134_61
# B6: P018.S.14.A.H01 (antibody, V domains shown)
# VH: QSVEESGGRLVTPGTPLTLTCTVSGFSLSDYYMTWVRQAPGKGLEYIGIMSGSGSTYYASWAKGRFTISKTSSTTLELKITSPTTEDTAIYFCARDGDYAGWGYATGAFDPWGPGTLVTVSS
# VL: AAVLTQTPSPVSAAVGGTVTISCQASQSVVGNSLLSWFQKKPGQPPKLLIYSASSLASGVPSRFKGSGSGTQFTLTISDLESDDAATYYCTGRYNSDTDTFVFGGGTEVVVK
# B7: P018.S.13.A.A05 (antibody, V domains shown)
# VH: QSLEESGGRLVTPGTPLTLTCTASGFSLSRYDMSWVRQAPGKGLEYIGVISSSGGTNYANWAKGRFTISKTSTTVDLKITSPTTEDTATYFCAREGDYWDFNLWGPGTLVTVSS
# VL: AQVLTQTPSSVSAAVGGTVTINCQASQSISNLLAWYQQKPGQPPKLLIYGASTLASGVPSRFSGSGSGTEFTLTISDLESDDAATYYCAGGFPGLDTVAAFGGGTEAVVT
# B8: P018.S.14.A.A04 (antibody, V domains shown)
# VH: QSLEESGGRLVTPGTPLTLTCTVSGFSLNDYWMSWVRQAPGKGLEWIGYIDVGGSLYYASWAKGRFTISRTSTTVDLKMTSLTTEDTATYFCARGGLTYGFDLWGPGTLVTVSS
# VL: DIVMTQTPASVSEPVGGTVTINCQASEDISSYLAWYQQKPGQRPKRLIYGASDLASGVPSRFSASGSGTEYALTISDLESADAATYYCHYYATISGLGVAFGGGTEVVVK
# B9: P018.S.08.A.F03 (antibody, V domains shown)
# VH: QSVEESGGRLVTPGTPLTLTCTASGFTISSYHMIWVRQAPGEGLEWIGDIYGGTATTDYASWAKGRFTISKTSTTVDLKMTSLTTEDTATYFCARARYSGGSYANYVFNLWGQGTLVTVSS
# VL: DIVMTQTPASVEAAVGGTVTIKCQASQSISSYLAWYQQKPGQPPKLLIYRTSTLESGVPSRFKGSGSGTEFTLTISDLESADAATYYCQGYDWSSSNRYDNTFGGGTEVVVK
# B10: P018.S.14.A.G03 (antibody, V domains shown)
# VH: QSLEESGGRLVTPGTPLTLTCTVSGIDLSSYHMCWVRQAPGKGLEYIGYIAYGGNTYYANWAKGRFTISKTSTTVDLRITSPTTEDTATYFCARGYSEDSYWGLWGPGTLVTVSS
# VL: AYDMTQTPASVEAAVGGTVTIKCQASQNIENYLAWYQQKPGQPPKLLIYDTSKLTSGVPSRFSGSGSGTDFTLTISGVQSDDAATYYCQQDYGIIFVDNIFGGGTEVVVK
# B11: P018.S.08.A.E03 (antibody, V domains shown)
# VH: QSVEESGGRLVTPGTPLTLTCTVSGFSLTYYAVTWVRQPPGKGLEWIGVIYDNGATAFATWAKGRFTMSKNSTTVALKVTSPTTEDTATYFCARSANNAWSTYSNLWGQGTLVTVSS
# VL: DIVMTQTPSSVSAAVGGTVTINCQASEDISSYLSWYQQKLGQPPKLLIYKASTLESGVPSRFKGSGSGTEYTLTISDLESDDAATYYCQSYYSGSISGYGFVFGGGTGVVVK
# B12: P018.S.13.A.C02 (antibody, V domains shown)
# VH: QSVEESGGRLVTPGTPLTLTCTVSGFSLSSYAMSWVRQAPGKGLEWIGIISTSGITYYASWAKGRFTISKTSTMVDLKITSPTTEDTATYFCARLNGFDDYVRYFDFWGLGTLVTVSS
# VL: AIELTQTPSSVSAAVGGTVTINCQASESIASNLAWYQQKPGQPPKLLIYAASYLASGVPSRFKGSGSGTEYTLTISGVQSADAATYYCQSAFYVSSSDNAFGGGTEVVVK
# B13: P018.S.08.A.A04 (antibody, V domains shown)
# VH: QSVEESGGRLVTPGTPLTLTCTVSGFSLSSYAVSWVRQAPGKGLEWIGVIWNNGATHYATWAKGRFTISKASTTVDLKVTSPTTEDTATYFCARSANDAWSTYSDLWGQGTLVTVSS
# VL: DIVMTQTPASVEAAVGGTVTIKCQASQTITNYLSWYQQKPGQPPKLLIYKASTLTSGVSSRFKGSGSGTEFTLTISDLESDDAATYYCQNYYYGSSSGYGFVFGGGTEVVVK
# B14: P018.S.13.A.G03 (antibody, V domains shown)
# VH: QSLEESGGRLVTPGTPLTLTCTASGFSLSSYDVSWVRQAPGKGLEYIGFIGSDGSAHYATWVKGRFTISKTSTTVDLKITSPTTEDTATYFCARDWNDYWAHDLWGPGTLVTVSS
# VL: AQVLTQTTSPVSAAVGGTVTINCQASQIVTSKSALSWYQQKPGQPPRLLIYKASTLASGVPSRFSGSGSGTQFTLTISDLESDDAATYYCAGGYYNSGDLNPFGGGTEVVVK
# B15: P018.S.13.A.A06 (antibody, V domains shown)
# VH: QSVEESGGRLVTPGTPLTLTCTASGFTISDFHVTWVRQAPGKGLEWIGTIITSASTTAYATWARGRFTISKSSTTVNLKIVSPTTEDTATYFCARSTYTDTSGYYFDFWGQGTLVTVSS
# VL: AQVLTQTASPVSAAVGGTVIINCQSSQSIYNGNRLSWYQQKPGQPPKLLIYSASTLASGVSSRFKGSGSGTQFTLAISDVQSDDAATYYCLGSYDCDSADCFAFGGGTEVVVE
# Biological target: T1, CD134 expressed on the cell surface of HT1080_OX40 cells (human, UniProt P43489 29-277)
# T1 sequence (looked up): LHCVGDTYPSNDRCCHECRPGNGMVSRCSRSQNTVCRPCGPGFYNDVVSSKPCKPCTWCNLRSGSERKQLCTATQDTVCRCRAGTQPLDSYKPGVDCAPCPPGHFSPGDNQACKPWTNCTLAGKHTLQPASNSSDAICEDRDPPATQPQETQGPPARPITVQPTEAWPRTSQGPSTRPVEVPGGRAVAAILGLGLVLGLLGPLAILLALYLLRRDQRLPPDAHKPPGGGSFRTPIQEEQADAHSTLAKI
# Assay: cell-based or functional assay
Binder,Functional assay Cross-linked by F(ab′)2 fragment IL-8 [abs. corr.],Functional assay IL-8 [abs. corr.]
B1,1.95,2.56
B2,1.86,2.24
B3,2.1,1.57
B4,1.71,0.187
B5,2.06,-0.026

# Biological target: T1, CD134 expressed on the cell surface of …
# Assay: cell-based or functional assay
# Remark: another data set of the same source
row,Binder,"EC 50 (IL-8 release, cross-linked) [mg/L]"
1,B1,0.215
2,B2,0.176
3,B3,0.894
4,B4,7.12
5,B5,0.431

# Biological target: human 4-1BB (CD137) (human, UniProt Q07011 24-255)
# Assay: cell-based or functional assay
# human 4-1BB (CD137), sequence (Q07011 24-255): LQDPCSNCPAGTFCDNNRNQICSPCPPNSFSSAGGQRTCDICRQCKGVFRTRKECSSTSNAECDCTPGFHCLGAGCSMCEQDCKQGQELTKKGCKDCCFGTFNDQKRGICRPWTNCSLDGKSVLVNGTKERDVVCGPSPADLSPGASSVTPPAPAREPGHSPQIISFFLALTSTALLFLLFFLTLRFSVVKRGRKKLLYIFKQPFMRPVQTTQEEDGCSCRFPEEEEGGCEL
row,Binder,"EC 50 [ng/mL] of agonistic function (IL-8 release from CD137-overexpressing HT1080 cells, antibody cross-linked by F(ab')2 goat anti-human IgG) [ng/mL]"
1,B6,5820
2,B7,3720
3,B8,6790
4,B9,2710
5,B10,3500
6,B11,4960
7,B12,3500
8,B13,5150
9,B14,4780
10,B15,7790

# Biological target: T1, CD134 expressed on the cell surface of …
# Assay: HT1080_OX40 cells, imaging
row,Binder,Cellular binding assay [RFU]
1,B1,198
2,B2,482
3,B3,450
4,B4,392
5,B5,496

# Biological target: T2, CD134 protein (His-tagged, Sino Biological Inc. 10481-H08H) (human, UniProt P43489 29-216)
# T2 construct: bought protein coated on ELISA plates; also called OX40; TNFRSF4; not shown: His tag
# T2 sequence (looked up): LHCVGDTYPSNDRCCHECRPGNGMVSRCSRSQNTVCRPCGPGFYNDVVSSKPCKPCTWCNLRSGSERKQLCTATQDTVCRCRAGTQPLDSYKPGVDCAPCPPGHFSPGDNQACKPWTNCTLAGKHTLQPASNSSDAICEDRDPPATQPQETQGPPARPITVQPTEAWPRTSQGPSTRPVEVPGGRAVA
# Assay: ELISA, coated His-tagged CD134
row,Binder,ELISA [abs. corr.]
1,B1,0.468
2,B2,1.99
3,B3,2.11
4,B4,2.41
5,B5,2.49
